Laboratory results reported in patent publication US20220289857A1 (Kyowa Kirin, published 2022).
Where a chain is given by its changes, count along the chain named. Names and notes keep the numbering of the source.

Assays:
[1] = biological target: T1, human Fn14 (full length) on cells (human, UniProt Q9NP84 28-129); assay: flow cytometry on HK2 cells (endogenous human Fn14), purified antibody 1 µg/mL, detected with anti-mouse IgG PE
T1 construct: Transfected 293F cells, or endogenous on HK2, HRMC, A375, HaCaT, primary keratinocytes and dermal fibroblasts; also called hFn14; TNFRSF12A
T1 sequence: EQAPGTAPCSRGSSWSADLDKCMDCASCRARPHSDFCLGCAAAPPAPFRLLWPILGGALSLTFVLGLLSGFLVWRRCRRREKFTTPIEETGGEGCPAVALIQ
Experimental: (§1) Primary antibodies were used at a concentration of 1 μg/mL and binding was detected using anti-mouse IgG PE.
(§2) Specifically, the binding activity of hybridoma culture supernatants or purified antibodies to Fn14-expressing cells was evaluated by flow cytometry (FCM). The cell lines evaluated by FCM were Fn14-transfected human embryonic kidney 293F cells (ThermoFisher, cat# R79007) and two cell lines endogenously expressing Fn14, human kidney-derived HK2 cells (ATCC, cat# CRL-2190) and rat kidney-derived NRK-52E cells (Japanese Collection of Research Bioresources Cell Bank (JCRB), cat# IF050480). For FCM analysis, Fn14-expressing cells were harvested using 0.25% trypsin-EDTA (Nacalai Tesque), washed with PBS, and resuspended in SM (Staining Medium: PBS containing 2% FBS, 1 mM EDTA, 0.05% sodium azide). Cells were then seeded in a 96-well plate at 1 ×10⁵ cells per well. Hybridoma supernatant or purified antibody (1 μg/mL final concentration) was added and the cells were incubated at 4° C. for 60 minutes. Cells were then washed with SM, resuspended in goat F(ab′)2 anti-mouse IgG-PE (Southern Biotech Inc.), diluted 1:500 in SM and incubated at 4° C. for 60 minutes. Cells were washed with SM and finally resuspended in 50 μL of SM. Fluorescence intensity was measured by FCM (BD Biosciences, FACS CantoII) and the data were analyzed using FlowJo software (Tomy Digital Biology Co., Ltd.).

[2] = biological target: T2, rat Fn14, endogenous on NRK-52E cells (rat, UniProt Q9CR75 28-129 (mouse entry)); assay: flow cytometry on NRK-52E cells (endogenous rat Fn14), purified antibody 1 µg/mL, detected with anti-mouse IgG PE
T2 construct: Endogenous protein of rat kidney cells; also called NRK52E-A15/Luc cells
Experimental: as §1, §2

[3] = biological target: T3, mouse Fn14 (full length) on transfected 293F cells (mouse, UniProt Q9CR75 28-129); assay: flow cytometry, hybridoma supernatant on 293F cells transfected with mouse Fn14, detected with anti-mouse IgG PE
T3 sequence: T1 sequence with A7S, R11S, R29P, P47H, T62V, F63L, G66A, L68V, G70S, A97G
Experimental: FIG. 1 depicts binding of anti-Fn14 hybridoma supernatants to human and mouse Fn14 transfected cells. […] Hybridoma supernatant binding was detected using anti-mouse IgG PE.
as §2, with “Cells were washed with SM and finally resuspended in 50 μL of SM.” left out

[4] = biological target: T4, human Fn14 Subdomain 1 peptide (AA30-50), biotinylated (human, added C-terminal Lys carries Ahx-biotin; C-terminal amide); assay: biolayer interferometry (ForteBio Octet); biotinylated peptide on streptavidin biosensor, antibody in solution, response at 120 s of association
T4 peptide: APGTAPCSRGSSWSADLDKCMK
Experimental: (§3) A ForteBio Octet Qke instrument (ForteBio) was used to measure the ability of purified antibodies to bind Fn14 peptides. The assays were performed at 30° C. in 96-well half area plates (Grenier, cat# 675076), with agitation set to 1000 rpm, in kinetic buffer (provided in the assay kit) to minimize nonspecific interactions. Biosensor tips were equilibrated in kinetic buffer for 600 s prior to use. Soluble biotinylated peptides (20 μg/ml, Subdomain 1 (AA30-50): […]-[K-Ahx-biotin]-amide (SEQ ID NO: 182) and Subdomain 2 (AA51-70): […]-[K-Ahx-biotin]-amide (SEQ ID NO: 183) synthesized by 21′ Century Biochemicals) in kinetic buffer were immobilized on streptavidin-coated biosensors (ForteBio, cat# 18-5020) for 300 seconds. […] Purified antibodies (20 μg/m1) were allowed to bind the immobilized peptides. Association was measured for 300 seconds, using the high sensitivity kinetics setting. To characterize the binding properties of the antibody candidates, the response (nm) at t =120 seconds from the start of the association step was recorded. All values were compared to a control sample (isotype antibody).

[5] = biological target: T5, human Fn14 Subdomain 2 peptide (AA51-70), biotinylated (human, added C-terminal Lys carries Ahx-biotin; C-terminal amide); assay: biolayer interferometry (ForteBio Octet); biotinylated peptide on streptavidin biosensor, response at 120 s of association
T5 peptide: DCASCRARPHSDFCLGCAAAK
Experimental: as §3

[6] = biological target: T1, human Fn14 (full length) on cells; assay: cell-based or functional assay
[7] = biological target: T6, untagged human Fn14 extracellular domain (aa 28-75), SUMO-cleaved (human, UniProt Q9NP84 28-75); assay: co-crystal structure
T6 construct: Electron density seen for residues 32-68; also called Fn14 (crystallization)
Experimental: Purified Fn14 and His-tagged 41c Fab or R35B9 Fab proteins were mixed in a 1:1 stoichiometric ratio, concentrated to 1 mg/mL and then subjected to crystallization. Initial crystallization trials were performed in a 96-well format using a nano-liter dispensing liquid handling robot (Phoenix, Art Robbins Ltd.) while mixing 0.15 μL protein with 0.15 μL precipitant from different commercially available crystallization screens (JCSG core+and JCSG core 1 screens). Over 200 crystallization conditions were tested using the sitting drop vapor diffusion method and crystallization trails were carried out at both 4° C. and 22° C. Optimization of all crystallization conditions was performed manually by both hanging drop and sitting drop methods. Crystals were obtained in various conditions containing PEG 3350 or PEG 6000 as the common precipitant and were grown over 3 days. […]
The structure had good geometry with 4 residues (0.89%) as outliers and 97.6% residues in favored region of the Ramachandran plot. Correspondingly, the structure of Fn14 -R35B9-His Fab complex was determined by molecular replacement using the phase information obtained from Fn14-41c-His Fab complex and the structure was refined to 2.3 Å with residual factors R/Rfree=20.9/23.3.

B1: KO42d mouse monoclonal antibody (hybridoma-derived) (antibody, V domains shown)
VH: EVQLLQSGPELVKPVASVKMSCKASGYTFTDYNIHWVKQSHGKSLEWIGYINPNNGVTGYNQKFRGKATLTVNRSSNTAYMDLRSLTSEDSAVYYCTRRYGDYVHAMDCWGQGTSVTVSS
VL: DIQMTQSPSSLSASLGERVSLTCRASQDIGSRLNWLQQEPDGTIKRLIYATSSLDSGVPKRFSGSRSGSDYSLTISSLESEDFVDYYCLQYASSPYTFGGGTKLEIK
notes: Hybridoma supernatant or purified antibody from an Fn14 knockout mouse; native mouse IgG, kappa
binding result [1]: binds
binding result [2]: binds
binding result [3]: binds

B2: 41c recombinant mouse IgG1(D265A), kappa antibody (A291/A290) (antibody, V domains shown)
VH: EVQLQQSGPELVKPGASVKMSCKASGYTFTDYNMHWVKQSHGKSLEWIGYINPNNGGTNYNQKFKGKATLTVNKSSRSAYMEFRSLTSEDSAVYYCASSGWFTYWGQGTLVTVSA
VL: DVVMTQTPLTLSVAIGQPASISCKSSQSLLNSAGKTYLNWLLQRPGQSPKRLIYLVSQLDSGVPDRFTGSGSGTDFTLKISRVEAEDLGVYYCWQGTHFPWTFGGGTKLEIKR
binding result [4]: binds
binding result [5]: no binding (tested: 20 µg/mL)
ICAM-1 MFI on HRMC, 250 ng/mL rhTWEAK, mAb 0.1 µg/mL [6]: 13100 MFI

B3: 41c-His Fab (recombinant, bacterial, for crystallization) (Fab, V domains shown)
VH: B2 VH
VL: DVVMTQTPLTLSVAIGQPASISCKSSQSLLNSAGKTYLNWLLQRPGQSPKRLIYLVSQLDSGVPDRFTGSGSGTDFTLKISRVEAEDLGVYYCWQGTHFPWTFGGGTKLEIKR
notes: Two extra N-terminal residues on each chain (Leu-Glu heavy, Ser-Arg light); C-terminal linker and 6xHis on the heavy chain; also called His-tagged 41c Fab
binding result [7]: binds

B4: R35B9-His Fab (recombinant, bacterial, for crystallization) (Fab, V domains shown)
VH: B2 VH with T28I, T30Q, Y50S, N54R, G57W
VL: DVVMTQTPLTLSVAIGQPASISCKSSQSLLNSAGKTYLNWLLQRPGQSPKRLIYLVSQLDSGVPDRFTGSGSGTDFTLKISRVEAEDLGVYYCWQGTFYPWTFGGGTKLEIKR
notes: also called R35B9 Fab-His
binding result [7]: binds
